The values below are quoted from earlier work in US20240285756A1, “METHOD AND COMPOSITION FOR INDUCING TOLERANCE” (ZELARION MALTA LIMITED, priority 2021, published 2024).

In this data set the target is T1, CD2 (Homo sapiens, UniProt P06729).
T1 sequence (P06729 25-351): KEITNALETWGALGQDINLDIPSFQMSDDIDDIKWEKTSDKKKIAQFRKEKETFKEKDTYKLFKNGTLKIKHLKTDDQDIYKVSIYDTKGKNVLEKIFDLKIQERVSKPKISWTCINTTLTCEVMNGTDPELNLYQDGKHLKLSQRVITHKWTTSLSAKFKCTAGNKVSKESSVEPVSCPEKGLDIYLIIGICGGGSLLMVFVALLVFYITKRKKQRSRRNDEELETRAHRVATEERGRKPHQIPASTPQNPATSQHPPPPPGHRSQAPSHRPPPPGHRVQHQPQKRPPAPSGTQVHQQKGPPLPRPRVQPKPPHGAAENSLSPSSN
The conditions noted are these: literature value, Branco et al., Transplantation 1999; assay not further specified.

B1: siplizumab: humanized IgG1 kappa monoclonal antibody against human CD2; humanized version of rat antibody BTI-322 (antibody, V domains shown)
VH: QVQLVQSGAEVQRPGASVKVSCKASGYIFTEYYMYWVRQAPGQGLELVGRIDPEDGSIDYVEKFKKKVTLTADTSSSTAYMELSSLTSDDTAVYYCARGKFNYRFAYWGQGTLVTVSS
VL: DVVMTQSPPSLLVTLGQPASISCRSSQSLLHSSGNTYLNWLLQRPGQSPQPLIYLVSKLESGVPDRFSGSGSGTDFTLKISGVEAEDVGVYYCMQFTHYPYTFGQGTKLEIK
One may read the IC50 as the concentration needed to halve the response being measured. With B1, the concentration for half-maximal inhibition (IC50) is around 1 nM.
